# US10500274B2, “Methods for reducing viral load in HIV-1 infected patients” (CytoDyn Inc., priority 2008, dated 2019)
# Where “and” joins values, the source holds several entries; their conditions need not be identical. Identical values can stand only once. Like-named read-outs stand apart in the source and are kept apart here.
# How the values were obtained:
# [1] = system: HIV-1JR-FL envelope-mediated membrane fusion; experiment: microbe, parasite or virus in culture; assay type: cell-based; settings: inhibitor alone, experiment depicted in FIG. 15A; read-out: IC90
# R5-tropic HIV-1 = experiment: Phase 1b clinical study: plasma HIV-1 RNA; assay type: in vivo, human
# Description: Plasma HIV-1 RNA levels were determined with the Cobas Amplicor HIV-1 Monitor Test (Version 1.5; Roche Diagnostics, Branchburg, N.J.). Samples <400 copies/mL were re-analyzed with the Ultrasensitive Monitor Method. Co-receptor tropism was determined at screening and Days 1, 8, 29 and 59 (Trofile™ assay, Monogram Biosciences, Inc., South San Francisco, Calif.). Viral susceptibility was determined on Days 1 and 59 with the Phenosense™ HIV Entry assay. Results obtained with CCR5^+ target cells were reported as Fold Change or relative EC50 (rEC50), which was defined as (EC50 test isolate)/(EC50 reference virus). […] Maximum percent inhibitions were determined from the plateaus of the inhibition curves. The reference virus was HIV-192HT594, a low-passage dual-tropic isolate. GeneSeq™ (Monogram Biosciences) was used to assess HIV-1 subtype and genotypic susceptibility to protease and reverse transcriptase inhibitors.
# Statistical analyses were performed on log10 transformed HIV-1 RNA data, and changes were calculated relative to baseline (Day 1 pre-dose). Treatment and placebo groups were compared using an analysis of variance (ANOVA) model. […] In addition, 2-sided paired t-tests were used to evaluate changes from baseline in CCR5^+ lymphocytes. Where necessary, end-of-study lymphocyte data were used in place of missing baseline data. […] AUC∞ values for individual subjects were used in the model. Clinical Trial Design and Study Results:
# The subjects comprised 31 males and 8 females, and their median age, CD4 counts and plasma HIV-1 RNA levels at baseline were 40.3 years, 484 cells/μL and 26,900 copies/mL, respectively Fifteen subjects reported prior use of antiretroviral therapy, and seven were co-infected with hepatitis C virus (HCV). All viruses were subtype B, and baseline genotypic resistance to existing drugs was limited to single-class resistance in two subjects in the 2 mg/kg group and a single subject in each of the other groups. The mean infusion time was 36 minutes, and all subjects completed the 58-day follow-up period. All patients were screened prior to the study for the presence of virus that utilizes only CCR5 as the entry coreceptor, i.e., CCR5-tropic virus.
# [2] = parameters: species or system human; settings: in vivo, sc
# From the text: (§1) Subjects were followed for a total of 58 days for safety and antiviral effects. Entry criteria included: HIV-1 RNA >5,000 copies/mL, R5 virus, […], no antiretroviral therapy <12 weeks.
# R5 HIV-1 = experiment: Phase 2 trial of subcutaneous PRO 140: HIV-1 RNA; assay type: in vivo, human
# Description: More particularly, dosing comprises 162 mg q1wx3, 324 mg q1wx3, 324 mg q2wx2. Subcutaneous PRO 140 offers a long-acting, self-administered therapy for HIV infection.
# as §1
# [3] = Phase 1b clinical study: safety, anti-PRO 140 antibodies, plasma RANTES
# From the text: Subjects were ≥18 years of age with plasma HIV-1 RNA ≥5,000 copies/mL, R5-tropic HIV-1 only, CD4^+ cells ≥250/μL with no documented nadir ≤200/μL and no antiretroviral therapy for at least 3 months. Major exclusion criteria included pregnancy, history of AIDS-defining illness, the presence of X4-tropic HIV-1, and acute or symptomatic viral hepatitis within the prior 6 months.
# Evaluations of clinical subjects included physical examinations, 12-lead electrocardiograms, vital signs, concomintant medications, and adverse events reporting. Clinical laboratory tests evaluated serum chemistries, hematology and urinalysis.
# Samples below the LLOQ were assigned a value of zero. PK metrics were estimated using non-compartmental methods. The area under the serum concentration-time curve from time zero to infinity (AUC) was calculated using the linear trapezoidal rule. The terminal serum half-life was calculated by regression of the terminal portion of the concentration-time curve. […] Sera were tested at a 1:10 dilution initially, and positive samples were serially diluted for titer analysis.
# CCR5^+ and CD4^+ lymphocytes were measured by flow cytometry. […] CTC5-PE data were used to determine the absolute number of circulating CCR5^+ lymphocytes pre- and post-treatment. RANTES was measured in platelet-depleted plasma using a validated ELISA.
# [4] = system: CCR5+ and CD4+ lymphocytes; assay type: in vivo, human
# Description: CCR5^+ and CD4^+ lymphocytes were measured by flow cytometry.
molecule,measurement,setting,value
"PRO 140: humanized IgG4,κ anti-CCR5 mAb, humanized version of the murine mAb PA14 (antibody, chains of the INN, looked up, V domains shown) VH: EVQLVESGGGLVKPGGSLRLSCAASGYTFSNYWIGWVRQAPGKGLEWIGDIYPGGNYIRNNEKFKDKTTLSADTSKNTAYLQMNSLKTEDTAVYYCGSSFGSNYVFAWFTYWGQGTLVTVSS VL: DIVMTQSPLSLPVTPGEPASISCRSSQRLLSSYGHTYLHWYLQKPGQSPQLLIYEVSNRFSGVPDRFSGSGSGTDFTLKISRVEAEDVGVYYCSQSTHVPLTFGQGTKVEIK",IC90,[1],111 nM
same,"AUC50, exposure required to achieve 50% of Emax",R5-tropic HIV-1; Emax model,43.7 ± 15.6 mg·days/L
same,Mean HIV-1 RNA reduction (maximum),"R5-tropic HIV-1; HIV-infected adults, single IV 0.5 mg/kg",0.58 log10
same,day by which viral loads returned to baseline,R5-tropic HIV-1; all treatment groups,≤ 29 days
same,lowest documented HIV-1 RNA level on study,"R5-tropic HIV-1; human, in vivo",61 copies/mL
same,Log10 change from baseline in HIV-1 RNA: Mean (±SD) of individual nadirs,R5-tropic HIV-1; single IV 0.5 mg/kg,−0.58 ± 0.30 log10
same,antiviral response rate (subjects with ≥1.0 log10 reduction at any time),R5-tropic HIV-1; single IV 0.5 mg/kg,10%
same,mean log10 decline in viral load at Day 10,R5-tropic HIV-1; single IV 0.5 mg/kg,0.37 log10
same,Log10 change from baseline in HIV-1 RNA: Mean (±SD) at Day 10,"R5-tropic HIV-1; single IV 0.5 mg/kg, 0.5 mg/kg",−0.37 log10 and −0.37 ± 0.54 log10
same,Log10 change from baseline in HIV-1 RNA: Mean (±SD) of individual nadirs,R5-tropic HIV-1; single IV 2 mg/kg,−1.20 ± 0.63 log10
same,Mean HIV-1 RNA reduction (maximum),R5-tropic HIV-1; single IV 2 mg/kg,1.20 log10
same,antiviral response rate (subjects with ≥1.0 log10 reduction at any time),R5-tropic HIV-1; single IV 2 mg/kg,60%
same,mean log10 decline in viral load at Day 10,R5-tropic HIV-1; single IV 2 mg/kg,1.04 log10
same,Individual HIV-1 RNA reductions (ranged to),"R5-tropic HIV-1; single IV 2 mg/kg, 2 mg/kg",up to 2.5 log10 and ≤ 2.5 log10
same,Log10 change from baseline in HIV-1 RNA: Mean (±SD) at Day 10,"R5-tropic HIV-1; single IV 2 mg/kg, 2 mg/kg",−1.04 log10 and −1.04 ± 0.45 log10
same,Mean HIV-1 RNA reduction (average maximum decrease of viral load),R5-tropic HIV-1; single IV 5 mg/kg,1.83 log10
same,antiviral response rate (subjects with ≥1.0 log10 reduction at any time),R5-tropic HIV-1; single IV 5 mg/kg,100%
same,day on which mean viral load reductions of 1 log10 were first observed,R5-tropic HIV-1; single IV 5 mg/kg,5 Day
same,mean log10 decline in viral load at Day 10 (nine days post-treatment),R5-tropic HIV-1; single IV 5 mg/kg,1.70 log10
same,persistence of mean 1 log10 viral load reduction post-treatment,R5-tropic HIV-1; single IV 5 mg/kg,2-3 weeks
same,viral load change at day 22,R5-tropic HIV-1; single IV 5 mg/kg,−0.73 log
same,Individual HIV-1 RNA reductions (ranged to),"R5-tropic HIV-1; single IV 5 mg/kg, 5 mg/kg",up to 2.5 log10 and ≤ 2.5 log10
same,Log10 change from baseline in HIV-1 RNA: Mean (±SD) at Day 10,"R5-tropic HIV-1; single IV 5 mg/kg, 5 mg/kg",−1.70 log10 and −1.70 ± 0.49 log10
same,Log10 change from baseline in HIV-1 RNA: Mean (±SD) of individual nadirs,"R5-tropic HIV-1; single IV 5 mg/kg, 5 mg/kg",−1.8 log10 and −1.84 ± 0.41 log10
same,administration site reactions,[2],mild in intensity and resolved within one to two days
same,drug-related serious adverse events,[2],no drug-related serious adverse events
same,tolerability,[2],generally well tolerated compared to placebo
same,mean reduction in viral load at day 22,R5 HIV-1; SC 162 mg weekly,0.75 log 10
same,% subjects with ≥1 log10 drop,"R5 HIV-1; SC 162 mg, Days 1, 8, 15",55%
same,Max viral load reduction (mean),"R5 HIV-1; SC 162 mg, Days 1, 8, 15",0.99 log10
same,Max viral load reduction: Range,"R5 HIV-1; SC 162 mg, Days 1, 8, 15",−0.23 to −1.92 log10
same,Mean duration in days ≥1 log10 drop,"R5 HIV-1; SC 162 mg, Days 1, 8, 15",14 days
same,log10 change in HIV-1 RNA: Day 22 Mean,"R5 HIV-1; SC 162 mg, Days 1, 8, 15",−0.75 log10
same,log10 change in HIV-1 RNA: Day 22 Median,"R5 HIV-1; SC 162 mg, Days 1, 8, 15",−0.77; p = 0.0072 log10
same,maximum log10 change in HIV-1 RNA: Mean,"R5 HIV-1; SC 162 mg, Days 1, 8, 15",−0.99 log10
same,maximum log10 change in HIV-1 RNA: Median,"R5 HIV-1; SC 162 mg, Days 1, 8, 15",−1.06; p = 0.0093 log10
same,mean reduction in viral load at day 22,R5 HIV-1; SC 324 mg bi-weekly,1.20 log 10
same,mean reduction in viral load at day 22,R5 HIV-1; SC 324 mg weekly,1.51 log 10
same,% subjects with ≥1 log10 drop,"R5 HIV-1; SC 324 mg, Days 1, 8, 15",73%
same,Max viral load reduction (mean),"R5 HIV-1; SC 324 mg, Days 1, 8, 15",1.65 log10
same,Max viral load reduction: Range,"R5 HIV-1; SC 324 mg, Days 1, 8, 15",−0.76 to −2.50 log10
same,Mean duration in days ≥1 log10 drop,"R5 HIV-1; SC 324 mg, Days 1, 8, 15",20 days
same,log10 change in HIV-1 RNA: Day 22 Mean,"R5 HIV-1; SC 324 mg, Days 1, 8, 15",−1.51 log10
same,log10 change in HIV-1 RNA: Day 22 Median,"R5 HIV-1; SC 324 mg, Days 1, 8, 15",−1.50; p < 0.0001 log10
same,maximum log10 change in HIV-1 RNA: Mean,"R5 HIV-1; SC 324 mg, Days 1, 8, 15",−1.65 log10
same,maximum log10 change in HIV-1 RNA: Median,"R5 HIV-1; SC 324 mg, Days 1, 8, 15",−1.74; p < 0.0001 log10
same,% subjects with ≥1 log10 drop,"R5 HIV-1; SC 324 mg, Days 1, 15",67%
same,Max viral load reduction (mean),"R5 HIV-1; SC 324 mg, Days 1, 15",1.37 log10
same,Max viral load reduction: Range,"R5 HIV-1; SC 324 mg, Days 1, 15",−0.35 to −3.53 log10
same,Mean duration in days ≥1 log10 drop,"R5 HIV-1; SC 324 mg, Days 1, 15",18 days
same,log10 change in HIV-1 RNA: Day 22 Mean,"R5 HIV-1; SC 324 mg, Days 1, 15",−1.20 log10
same,log10 change in HIV-1 RNA: Day 22 Median,"R5 HIV-1; SC 324 mg, Days 1, 15",−1.03; p < 0.0001 log10
same,maximum log10 change in HIV-1 RNA: Mean,"R5 HIV-1; SC 324 mg, Days 1, 15",−1.37 log10
same,maximum log10 change in HIV-1 RNA: Median,"R5 HIV-1; SC 324 mg, Days 1, 15",−1.16; p = 0.0001 log10
same,continuation of suppression following the last dose,"R5 HIV-1; SC 324 mg, days 1, 8 and 15",7 days
same,serious adverse events / dose-limiting toxicity,"[3]; human, in vivo",No drug-related serious adverse events or dose-limiting toxicity was reported
same,effect on QTc intervals / electrocardiogram,"[3]; single IV 0.5, 2 and 5 mg/kg",no clinically relevant drug-related effect on QTc intervals
same,duration of maximal masking or coating of CCR5,[4]; 0.5 mg/kg,1 week
same,average increase in CD4+ lymphocytes,"[4]; 5 mg/kg, Day 8",129 cells/mm^3
same,mean change in CD4+ cells over baseline,"[4]; 5 mg/kg, Day 8",+129 cells/μL
same,mean change in CD4+ cells over baseline,"[4]; 5 mg/kg, Day 15",+96 cells/μL
same,mean change in CD4+ cells over baseline,"[4]; 5 mg/kg, Day 22",+83 cells/μL
same,mean change in CD4+ cells over baseline,"[4]; 5 mg/kg, Days 29 and 59",< +10 cells/μL
same,change in CD4+ cells (in words),[4]; 0.5 and 2 mg/kg groups,No significant change
same,duration of maximal (high-level) coating of CCR5,[4]; 2 and 5 mg/kg (higher dose levels),2 weeks
same,duration of significant (p<0.05) coating of CCR5+ lymphocytes,[4]; all PRO 140 treatment groups,2-4 weeks
same,depletion of CCR5+ cells,"[4]; human, in vivo",no depletion of CCR5^+ cells
